The results in this text go back to paper PMC10275983.

Values joined by “and” are separate entries in the source; they are usually repeats but may differ in a detail not shown here. Equal values may be shown once.

The target of the assay is S1 (Novus Biologicals NBP2-90985) (SARS-CoV-2), P0DTC2. Description: AlphaScreen or HTRF. (In general: Bead proximity is the source of the signal in Alpha formats.)
The IC50 is the midpoint of a concentration-inhibition curve. A low value points to greater potency. Molecule ACMNPFFYDCETVCA (modifications not checked) [BCY16207 (E9)] came in with an IC50 of 1100 nM. Turning to ACEYVGPMCYRLYCA (modifications not checked) [BCY15354 (E1)], the IC50 is 360 nM and 1600 nM and 550 nM.

For the molecule ACEDNDWVYCSTCA (modifications not checked) [BCY15231 (E3)], the IC50 is 310 nM and 400 nM.
